Experimental data published in patent US20240279278A1, “NMU RECEPTOR 2 AGONISTS” (Boehringer Ingelheim International GmbH, priority 2023, published 2024).
Starred links: 1 amine or outer side, 2 acyl side, 3 side chain; linkers in the order of their positions; H or OH if unused. Non-standard residues stand in square brackets, D forms with d. *: point of attachment. Pipz(1-CH2CO,4-CH2CH2NH) = O=C(CN1CCN(CCN[*:1])CC1)[*:2]; C18 diacid = O=C(O)CCCCCCCCCCCCCCCCC(=O)*; γGlu = O=C(O)[C@H](CCC(=O)[*:2])N[*:1]; NMeL = CN[C@@H](CC(C)C)C(=O)O; hLys = NCCCCC[C@H](N)C(=O)O; Nle = CCCC[C@H](N)C(=O)O; Sar = CNCC(=O)O

T1: human neuromedin U receptor 1 (human, UniProt Q9HB89 24-426)
T1 sequence (looked up): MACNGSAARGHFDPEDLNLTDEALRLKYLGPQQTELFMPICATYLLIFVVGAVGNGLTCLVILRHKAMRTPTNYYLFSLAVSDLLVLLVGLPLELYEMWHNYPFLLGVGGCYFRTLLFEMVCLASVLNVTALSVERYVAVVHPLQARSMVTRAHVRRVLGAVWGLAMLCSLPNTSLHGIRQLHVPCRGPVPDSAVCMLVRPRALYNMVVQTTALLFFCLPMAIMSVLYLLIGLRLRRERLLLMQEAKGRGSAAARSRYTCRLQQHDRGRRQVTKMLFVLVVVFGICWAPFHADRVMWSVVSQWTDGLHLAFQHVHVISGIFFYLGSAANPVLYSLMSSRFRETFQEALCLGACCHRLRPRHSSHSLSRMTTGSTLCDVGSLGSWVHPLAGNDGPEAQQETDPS

B1: C18DA-gGlu2-Sar9-AEPipAc-Tyr-Phe-NMeLeu-Nle-Arg-NMeAla-Arg-Gly-NH2 (peptide)
peptide: EEXXXXXXXXXXYFLXRARG
HELM: PEPTIDE1{[O=C(O)CCCCCCCCCCCCCCCCC(=O)[*:2]].[gGlu].[gGlu].[Sar].[Sar].[Sar].[Sar].[Sar].[Sar].[Sar].[Sar].[Sar].[O=C(CN1CCN(CCN[*:1])CC1)[*:2]].Y.F.[meL].[Nle].R.[meA].R.G.[am]}$$$$V2.0
SMILES: CCCC[C@H](NC(=O)[C@H](CC(C)C)N(C)C(=O)[C@H](Cc1ccccc1)NC(=O)[C@H](Cc1ccc(O)cc1)NC(=O)CN1CCN(CCNC(=O)CN(C)C(=O)CN(C)C(=O)CN(C)C(=O)CN(C)C(=O)CN(C)C(=O)CN(C)C(=O)CN(C)C(=O)CN(C)C(=O)CN(C)C(=O)CC[C@H](NC(=O)CC[C@H](NC(=O)CCCCCCCCCCCCCCCCC(=O)O)C(=O)O)C(=O)O)CC1)C(=O)N[C@@H](CCCNC(=N)N)C(=O)N(C)[C@@H](C)C(=O)N[C@@H](CCCNC(=N)N)C(=O)NCC(N)=O
B2: C18DA-gGlu2-Sar9-AEPipAc-Tyr-Phe-NMeLeu-Nle-Arg-Pro-Arg-Gly-NH2 (peptide)
peptide: EEXXXXXXXXXXYFLXRPRG
HELM: PEPTIDE1{[O=C(O)CCCCCCCCCCCCCCCCC(=O)[*:2]].[gGlu].[gGlu].[Sar].[Sar].[Sar].[Sar].[Sar].[Sar].[Sar].[Sar].[Sar].[O=C(CN1CCN(CCN[*:1])CC1)[*:2]].Y.F.[meL].[Nle].R.P.R.G.[am]}$$$$V2.0
SMILES: CCCC[C@H](NC(=O)[C@H](CC(C)C)N(C)C(=O)[C@H](Cc1ccccc1)NC(=O)[C@H](Cc1ccc(O)cc1)NC(=O)CN1CCN(CCNC(=O)CN(C)C(=O)CN(C)C(=O)CN(C)C(=O)CN(C)C(=O)CN(C)C(=O)CN(C)C(=O)CN(C)C(=O)CN(C)C(=O)CN(C)C(=O)CC[C@H](NC(=O)CC[C@H](NC(=O)CCCCCCCCCCCCCCCCC(=O)O)C(=O)O)C(=O)O)CC1)C(=O)N[C@@H](CCCNC(=N)N)C(=O)N1CCC[C@H]1C(=O)N[C@@H](CCCNC(=N)N)C(=O)NCC(N)=O
B3: C18DA-gGlu3-Sar6-AEPipAc-Tyr-Phe-NMeLeu-Nle-Arg-Pro-Arg-Gly-NH2 (peptide)
peptide: EEEXXXXXXXYFLXRPRG
HELM: PEPTIDE1{[O=C(O)CCCCCCCCCCCCCCCCC(=O)[*:2]].[gGlu].[gGlu].[gGlu].[Sar].[Sar].[Sar].[Sar].[Sar].[Sar].[O=C(CN1CCN(CCN[*:1])CC1)[*:2]].Y.F.[meL].[Nle].R.P.R.G.[am]}$$$$V2.0
SMILES: CCCC[C@H](NC(=O)[C@H](CC(C)C)N(C)C(=O)[C@H](Cc1ccccc1)NC(=O)[C@H](Cc1ccc(O)cc1)NC(=O)CN1CCN(CCNC(=O)CN(C)C(=O)CN(C)C(=O)CN(C)C(=O)CN(C)C(=O)CN(C)C(=O)CN(C)C(=O)CC[C@H](NC(=O)CC[C@H](NC(=O)CC[C@H](NC(=O)CCCCCCCCCCCCCCCCC(=O)O)C(=O)O)C(=O)O)C(=O)O)CC1)C(=O)N[C@@H](CCCNC(=N)N)C(=O)N1CCC[C@H]1C(=O)N[C@@H](CCCNC(=N)N)C(=O)NCC(N)=O
B4: C18DA-gGlu3-Sar9-AEPipAc-Tyr-Phe-NMeLeu-Nle-Orn-NMeAla-Arg-Gly-NH2 (peptide)
peptide: EEEXXXXXXXXXXYFLXXARG
HELM: PEPTIDE1{[O=C(O)CCCCCCCCCCCCCCCCC(=O)[*:2]].[gGlu].[gGlu].[gGlu].[Sar].[Sar].[Sar].[Sar].[Sar].[Sar].[Sar].[Sar].[Sar].[O=C(CN1CCN(CCN[*:1])CC1)[*:2]].Y.F.[meL].[Nle].[Orn].[meA].R.G.[am]}$$$$V2.0
SMILES: CCCC[C@H](NC(=O)[C@H](CC(C)C)N(C)C(=O)[C@H](Cc1ccccc1)NC(=O)[C@H](Cc1ccc(O)cc1)NC(=O)CN1CCN(CCNC(=O)CN(C)C(=O)CN(C)C(=O)CN(C)C(=O)CN(C)C(=O)CN(C)C(=O)CN(C)C(=O)CN(C)C(=O)CN(C)C(=O)CN(C)C(=O)CC[C@H](NC(=O)CC[C@H](NC(=O)CC[C@H](NC(=O)CCCCCCCCCCCCCCCCC(=O)O)C(=O)O)C(=O)O)C(=O)O)CC1)C(=O)N[C@@H](CCCN)C(=O)N(C)[C@@H](C)C(=O)N[C@@H](CCCNC(=N)N)C(=O)NCC(N)=O
B5: C18DA-gGlu2-Sar6-AEPipAc-Tyr-Phe-NMeLeu-Nle-Arg-Pro-Arg-Gly-NH2 (peptide)
peptide: EEXXXXXXXYFLXRPRG
HELM: PEPTIDE1{[O=C(O)CCCCCCCCCCCCCCCCC(=O)[*:2]].[gGlu].[gGlu].[Sar].[Sar].[Sar].[Sar].[Sar].[Sar].[O=C(CN1CCN(CCN[*:1])CC1)[*:2]].Y.F.[meL].[Nle].R.P.R.G.[am]}$$$$V2.0
SMILES: CCCC[C@H](NC(=O)[C@H](CC(C)C)N(C)C(=O)[C@H](Cc1ccccc1)NC(=O)[C@H](Cc1ccc(O)cc1)NC(=O)CN1CCN(CCNC(=O)CN(C)C(=O)CN(C)C(=O)CN(C)C(=O)CN(C)C(=O)CN(C)C(=O)CN(C)C(=O)CC[C@H](NC(=O)CC[C@H](NC(=O)CCCCCCCCCCCCCCCCC(=O)O)C(=O)O)C(=O)O)CC1)C(=O)N[C@@H](CCCNC(=N)N)C(=O)N1CCC[C@H]1C(=O)N[C@@H](CCCNC(=N)N)C(=O)NCC(N)=O
B6: C18DA-gGlu3-Sar9-AEPipAc-Tyr-Phe-NMeLeu-Nle-Arg-Pro-Arg-Gly-NH2 (peptide)
peptide: EEEXXXXXXXXXXYFLXRPRG
HELM: PEPTIDE1{[O=C(O)CCCCCCCCCCCCCCCCC(=O)[*:2]].[gGlu].[gGlu].[gGlu].[Sar].[Sar].[Sar].[Sar].[Sar].[Sar].[Sar].[Sar].[Sar].[O=C(CN1CCN(CCN[*:1])CC1)[*:2]].Y.F.[meL].[Nle].R.P.R.G.[am]}$$$$V2.0
SMILES: CCCC[C@H](NC(=O)[C@H](CC(C)C)N(C)C(=O)[C@H](Cc1ccccc1)NC(=O)[C@H](Cc1ccc(O)cc1)NC(=O)CN1CCN(CCNC(=O)CN(C)C(=O)CN(C)C(=O)CN(C)C(=O)CN(C)C(=O)CN(C)C(=O)CN(C)C(=O)CN(C)C(=O)CN(C)C(=O)CN(C)C(=O)CC[C@H](NC(=O)CC[C@H](NC(=O)CC[C@H](NC(=O)CCCCCCCCCCCCCCCCC(=O)O)C(=O)O)C(=O)O)C(=O)O)CC1)C(=O)N[C@@H](CCCNC(=N)N)C(=O)N1CCC[C@H]1C(=O)N[C@@H](CCCNC(=N)N)C(=O)NCC(N)=O
B7: C18DA-gGlu3-Sar9-AEPipAc-Tyr-Phe-NMeLeu-Nle-Arg-NMeAla-Arg-Gly-NH2 (peptide)
peptide: EEEXXXXXXXXXXYFLXRARG
HELM: PEPTIDE1{[O=C(O)CCCCCCCCCCCCCCCCC(=O)[*:2]].[gGlu].[gGlu].[gGlu].[Sar].[Sar].[Sar].[Sar].[Sar].[Sar].[Sar].[Sar].[Sar].[O=C(CN1CCN(CCN[*:1])CC1)[*:2]].Y.F.[meL].[Nle].R.[meA].R.G.[am]}$$$$V2.0
SMILES: CCCC[C@H](NC(=O)[C@H](CC(C)C)N(C)C(=O)[C@H](Cc1ccccc1)NC(=O)[C@H](Cc1ccc(O)cc1)NC(=O)CN1CCN(CCNC(=O)CN(C)C(=O)CN(C)C(=O)CN(C)C(=O)CN(C)C(=O)CN(C)C(=O)CN(C)C(=O)CN(C)C(=O)CN(C)C(=O)CN(C)C(=O)CC[C@H](NC(=O)CC[C@H](NC(=O)CC[C@H](NC(=O)CCCCCCCCCCCCCCCCC(=O)O)C(=O)O)C(=O)O)C(=O)O)CC1)C(=O)N[C@@H](CCCNC(=N)N)C(=O)N(C)[C@@H](C)C(=O)N[C@@H](CCCNC(=N)N)C(=O)NCC(N)=O
B8: C18DA-gGlu3-Sar9-AEPipAc-Tyr-Phe-NMeLeu-Nle-hLys-Pro-Arg-Gly-NH2 (peptide)
peptide: {C18 diacid}-[γGlu][γGlu][γGlu][Sar][Sar][Sar][Sar][Sar][Sar][Sar][Sar][Sar][Pipz(1-CH2CO,4-CH2CH2NH)]YF[NMeL][Nle][hLys]PRG-NH2
SMILES: CCCC[C@H](NC(=O)[C@H](CC(C)C)N(C)C(=O)[C@H](Cc1ccccc1)NC(=O)[C@H](Cc1ccc(O)cc1)NC(=O)CN1CCN(CCNC(=O)CN(C)C(=O)CN(C)C(=O)CN(C)C(=O)CN(C)C(=O)CN(C)C(=O)CN(C)C(=O)CN(C)C(=O)CN(C)C(=O)CN(C)C(=O)CC[C@H](NC(=O)CC[C@H](NC(=O)CC[C@H](NC(=O)CCCCCCCCCCCCCCCCC(=O)O)C(=O)O)C(=O)O)C(=O)O)CC1)C(=O)N[C@@H](CCCCCN)C(=O)N1CCC[C@H]1C(=O)N[C@@H](CCCNC(=N)N)C(=O)NCC(N)=O
B9: C18DA-gGlu3-Sar15-PipAc-Tyr-Phe-NMeLeu-Nle-Arg-Pro-Arg-Gly-NH2 (peptide)
peptide: EEEXXXXXXXXXXXXXXXXYFLXRPRG
HELM: PEPTIDE1{[O=C(O)CCCCCCCCCCCCCCCCC(=O)[*:2]].[gGlu].[gGlu].[gGlu].[Sar].[Sar].[Sar].[Sar].[Sar].[Sar].[Sar].[Sar].[Sar].[Sar].[Sar].[Sar].[Sar].[Sar].[Sar].[O=C(CN1CCN([*:1])CC1)[*:2]].Y.F.[meL].[Nle].R.P.R.G.[am]}$$$$V2.0
SMILES: CCCC[C@H](NC(=O)[C@H](CC(C)C)N(C)C(=O)[C@H](Cc1ccccc1)NC(=O)[C@H](Cc1ccc(O)cc1)NC(=O)CN1CCN(C(=O)CN(C)C(=O)CN(C)C(=O)CN(C)C(=O)CN(C)C(=O)CN(C)C(=O)CN(C)C(=O)CN(C)C(=O)CN(C)C(=O)CN(C)C(=O)CN(C)C(=O)CN(C)C(=O)CN(C)C(=O)CN(C)C(=O)CN(C)C(=O)CN(C)C(=O)CC[C@H](NC(=O)CC[C@H](NC(=O)CC[C@H](NC(=O)CCCCCCCCCCCCCCCCC(=O)O)C(=O)O)C(=O)O)C(=O)O)CC1)C(=O)N[C@@H](CCCNC(=N)N)C(=O)N1CCC[C@H]1C(=O)N[C@@H](CCCNC(=N)N)C(=O)NCC(N)=O

molecular target: T1, human neuromedin U receptor 1; experiment: cell-based or functional assay

Binder	EC50 (hNMUR1) buffer
B1	550 nM
B2	90 nM
B3	82 nM
B4	> 1000 nM
B5	130 nM
B6	150 nM
B7	540 nM
B8	1400 nM
B9	130 nM
